Molecular target: the molecule itself
Test: cryo-EM structure; single-particle cryo-EM of MS2 virions incubated with purified F-pili for 30 min at 37 °C; grids tilted 0°, 15° or 30°; maps at 5.0 Å (whole complex), 6.2 Å (F-pilus/Mat, local mask) and 5.6 to 7.3 Å (three classes)

B1: F-pilin, subunit of the E. coli F-pilus encoded by the pOX38 plasmid (natural protein, E. coli (pOX38 plasmid), UniProt P04737 52-121, looked up)
chain: AGSSGQDLMASGNTTVKATFGKDSSVVKWVVLAEVLVGAVMYMMTKNVKFLAGFAIISVFIAVGMAVVGL
notes: F-pilin of the pOX38 (F) plasmid, mature pilin; its first five residues are printed as AGSSG; assembled as a five-start helical filament with one phospholipid per pilin; initial model PDB 5LER. numbers count on: the mature protein; Stood in the assay as the assembled filament (stoichiometric pilin-phospholipid complex); the number of subunits is not fixed; source: on the cells for cryo-ET
- binding result: binds
